Laboratory results taken from patent US20250206841A1 (ADEPT THERAPEUTICS, published 2025).

What was measured:
[1] = biological target: T1, human Trop-2 expressed on cell surface (human, UniProt P09758 27-323); assay: cell-based or functional assay
T1 sequence (looked up): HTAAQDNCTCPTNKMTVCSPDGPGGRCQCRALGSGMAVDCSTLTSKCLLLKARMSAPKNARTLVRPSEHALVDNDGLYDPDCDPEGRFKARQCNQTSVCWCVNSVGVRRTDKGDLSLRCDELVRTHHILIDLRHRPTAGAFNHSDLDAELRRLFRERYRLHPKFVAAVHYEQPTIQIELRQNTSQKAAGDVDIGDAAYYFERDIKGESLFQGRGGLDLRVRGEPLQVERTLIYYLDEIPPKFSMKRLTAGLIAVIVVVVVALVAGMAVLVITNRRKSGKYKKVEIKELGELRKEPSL

[2] = biological target: cynomolgus Trop-2-His protein (cynomolgus); assay: ELISA, coated Trop-2 protein
human Trop-2-His protein [3] = biological target: T2, human Trop-2-His protein (human, UniProt P09758 27-274); assay: BLI (Gator Prime), positive control at 1 µg/ml on HFC probe
T2 construct: extracellular domain; Assay paragraphs say only 'Trop-2-His'; also called hTrop-2; Kactus Cat #TRP-HM121; not shown: His tag
T2 sequence (looked up): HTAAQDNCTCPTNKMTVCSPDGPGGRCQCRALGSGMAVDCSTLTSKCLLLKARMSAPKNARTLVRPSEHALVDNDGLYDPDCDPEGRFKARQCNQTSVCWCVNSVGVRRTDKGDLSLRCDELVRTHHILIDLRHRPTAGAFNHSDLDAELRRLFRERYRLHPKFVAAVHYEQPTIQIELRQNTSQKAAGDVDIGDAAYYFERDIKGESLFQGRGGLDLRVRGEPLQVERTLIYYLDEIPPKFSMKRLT

[4] = biological target: cynomolgus Trop-2-His protein (cynomolgus); assay: as above
human Trop-2-His protein [5] = biological target: T2, human Trop-2-His protein; assay: BLI (Gator Prime), positive control at 1 µg/ml on HFC probe; second line of values
[6] = biological target: cynomolgus Trop-2-His protein (cynomolgus); assay: as above
human Trop-2-His protein [7] = biological target: T2, human Trop-2-His protein; assay: ELISA, coated Trop-2 protein
Procedure: Purified antibodies were tested by ELISA to confirm their binding and affinity against human and cynomolgus Trop-2-His protein. Briefly, 96-well Maxisorp plates (Nunc) were coated with 100 μl/well of 0.5 μg/ml human (Kactus Cat #TRP-HM121, or Sino Biological, Cat #10428-HO8H) or cynomolgus Trop-2 protein (Kactus Cat #TRP-CM121, or Sino Biological, Cat #90893-CO8H) diluted in 1×PBS (GIBCO) overnight at 4° C. Plates were washed four times with 300 μl/well washing buffer (1×PBST, diluted from 20×PBST (Thermo Scientific) with distilled water)) and then blocked with 300 μl/well of blocking buffer (1×PBST/3% BSA (BSA, Sigma)) for 2 hours at RT on plate shaker at 100 rpm. Plates were washed and added with 100 μl/well of testing antibodies, which were serial diluted with assay buffer (PBST/1% BSA). The antibodies were incubated at room temperature for 2 hours on plate shaker at 100 rpm. Plates were washed. One hundred microliters (100 μl) of 1:10,000 diluted horseradish peroxidase (HRP) conjugated anti-hIgG antibody (Jackson Immuno Research) was added into each well and incubated at room temperature for 1 hour on plate shaker at 100 rpm. Plates were washed and added with 100 μl/well TMB substrate for color development in dark at room temperature for up to 10 minutes. After addition of 50 μl/well of stop solution (1N H₂SO₄), plates were read at 450 nm on a plate reader (SpectraMax M5). EC₅₀ values were calculated using Graphpad Prism. Sacituzumab govitecan, was used as positive control. Anti-HEL.hIgG1 was used as isotype control.

human Trop-2-His protein [8] = biological target: T2, human Trop-2-His protein; assay: BLI (Gator Plus), Ab on HFC probe
[9] = biological target: T1, human Trop-2 expressed on cell surface; assay: flow cytometry, MCF-7 cells
Procedure: (§1) Cells were then resuspended in FACS buffer (1×DPBS/1% FBS) at 10⁶/ml concentration. One hundred microliter (100 μl) of cells were aliquoted into a single well in 96 well plates. The antibodies to be tested were serially diluted at 1:3 fold starting at 15 μg/mL and were then added into each well. The antibodies were mixed with cells and the mixtures were incubated on ice for 1 hour. After washing with FACS buffer, one hundred microliter (100 μl) of 1:400 diluted PE-conjugated anti-human Fc secondary antibody (Jackson Immuno Research) was added into each well and incubated for 30 minutes on ice. After washing with FACS buffer, stained cells were resuspended at diluted 7-ADD (Biolegend, used at 1:100 dilution) and analyzed on Guava 11HT or 5HT (Luminex). Data was analyzed using Flowjo software. EC₅₀ values were calculated using GraphPad Prism. Sacitnzurnab govitecan was used as positive control. Anti-HEL.hIgG1 was used as isotype negative control. Similar assay was performed using MCF-7 cells (known to express human Trop-2).

[10] = biological target: T1, human Trop-2 expressed on cell surface; assay: flow cytometry, MDA-MB-231-GFP cells
Procedure: as §1

B1: Sacituzumab govitecan (antibody, INN chains, looked up, V domains shown)
VH: QVQLQQSGSELKKPGASVKVSCKASGYTFTNYGMNWVKQAPGQGLKWMGWINTYTGEPTYTDDFKGRFAFSLDTSVSTAYLQISSLKADDTAVYFCARGGFGSSYWYFDVWGQGSLVTVSS
VL: DIQLTQSPSSLSASVGDRVSITCKASQDVSIAVAWYQQKPGKAPKLLIYSASYRYTGVPDRFSGSGSGTDFTLTISSLQPEDFAVYYCQQHYITPLTFGAGTKVEIKR
modifications: SN-38 payload (govitecan)
B1 gave an EC50 of ADCC (NFAT-CD16 reporter), MCF-7; average from 3 plates [1] of 2.72 nM, an EC50 of ADCC (NFAT-CD16 reporter), MDA-MB-231; average from 3 plates [1] of 0.55 nM and an Internalization %, MCF-7, 0.25 µg/ml, 1 h [1] of 30%. The Internalization %, MCF-7, 0.25 µg/ml, 2 h [1] was 43%, the Internalization %, MCF-7, 0.25 µg/ml, 4 h [1] was 44% and the Internalization %, MCF-7, 0.5 µg/ml, 1 h [1] was -4%. For the same binder, the Internalization %, MCF-7, 0.5 µg/ml, 2 h [1] was 41%, the Internalization %, MCF-7, 0.5 µg/ml, 4 h [1] was 55% and the Internalization %, MDA-MB-231, 0.25 µg/ml, 2 h [1] was 41%. The Internalization %, MDA-MB-231, 0.25 µg/ml, 4 h [1] was 46%, the Internalization %, MDA-MB-231, 0.5 µg/ml, 2 h [1] was 42% and the Internalization %, MDA-MB-231, 0.5 µg/ml, 4 h [1] was 45%. The Internalization %, MDA-MB-231, 1 µg/ml, 2 h [1] was 43%, the Internalization %, MDA-MB-231, 1 µg/ml, 4 h [1] was 49% and the Internalization %, MDA-MB-231, 2 µg/ml, 2 h [1] was 43%. It also gave an Internalization %, MDA-MB-231, 2 µg/ml, 4 h [1] of 48%, an EC50 [2] of 0.017 nM and a Kd (human Trop-2-His protein [3]) of 0.755 nM. For the same binder, the koff (human Trop-2-His protein [3]) was 0.00022 s⁻¹, the kon (human Trop-2-His protein [3]) was 285000 M⁻¹ s⁻¹ and the Kd [4] was 0.614 nM. It also gave a koff [4] of 0.00022 s⁻¹, a kon [4] of 405000 M⁻¹ s⁻¹ and a Kd (human Trop-2-His protein [5]) of 0.497 nM. For the same binder, the koff (human Trop-2-His protein [5]) was 0.00014 s⁻¹, the kon (human Trop-2-His protein [5]) was 281000 M⁻¹ s⁻¹ and the Kd [6] was 0.772 nM. It also gave a koff [6] of 0.00025 s⁻¹, a kon [6] of 326000 M⁻¹ s⁻¹ and an EC50 (human Trop-2-His protein [7]) of 0.014 nM. It also gave a kon (human Trop-2-His protein [8]) of 239000 M⁻¹ s⁻¹, an EC50 [9] of 2.2 nM and an EC50 [10] of 0.09 nM.
